These results are taken from patent US20110243967A1.

In experiment [1] the target is pMCMV-loaded H-2 L^d (mouse) (UniProt P01897).
The target of experiment [2] is QL9-loaded H-2 L^d (mouse) (UniProt P01897). The experiment is described as follows: flow cytometry, direct saturation of FITC-30.5.7 Fab on peptide-loaded RMA-S L^d cells. In general terms: In flow cytometry, cells or beads pass a laser one at a time.
In experiment [3] the target is SL9-loaded H-2 L^d (mouse) (UniProt P01897). Described as above.
Sequence of SL9-loaded H-2 L^d (mouse) (P01897 25-309): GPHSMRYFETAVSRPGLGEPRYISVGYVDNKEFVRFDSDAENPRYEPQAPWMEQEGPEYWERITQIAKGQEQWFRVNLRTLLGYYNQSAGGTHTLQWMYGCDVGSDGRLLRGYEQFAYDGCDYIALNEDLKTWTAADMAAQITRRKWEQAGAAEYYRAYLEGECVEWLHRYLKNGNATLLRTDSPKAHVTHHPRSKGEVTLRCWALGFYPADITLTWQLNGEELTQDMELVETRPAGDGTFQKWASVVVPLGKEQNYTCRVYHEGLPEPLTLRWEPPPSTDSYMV
The target in experiment [4] is p2Ca-loaded H-2 L^d (mouse) (UniProt P01897). The description is as above.
Sequence of p2Ca-loaded H-2 L^d (mouse) (P01897 25-362): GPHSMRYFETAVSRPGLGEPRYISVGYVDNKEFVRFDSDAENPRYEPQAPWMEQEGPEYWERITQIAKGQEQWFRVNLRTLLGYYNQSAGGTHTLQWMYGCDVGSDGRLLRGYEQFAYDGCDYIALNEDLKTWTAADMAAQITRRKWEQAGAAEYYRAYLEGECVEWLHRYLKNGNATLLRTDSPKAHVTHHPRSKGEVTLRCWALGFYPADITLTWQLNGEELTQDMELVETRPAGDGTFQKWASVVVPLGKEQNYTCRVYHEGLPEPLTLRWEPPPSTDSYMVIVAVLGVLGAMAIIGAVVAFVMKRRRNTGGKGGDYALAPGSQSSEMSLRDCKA
The target in experiment [5] is gp 70 (mouse).
Experiment [6] addresses pMCMV-loaded H-2 L^d (mouse) (UniProt P01897). This is another data set of the same source.
Experiment [7] deals with serologically reactive H-2 L^d on RENCA cells (murine) (UniProt P01897). The experiment is described as follows: flow cytometry on unstimulated RENCA cells.
Sequence of serologically reactive H-2 L^d on RENCA cells (murine) (P01897 25-362): as above
Experiment [8] shares this target. The experiment is described as follows: flow cytometry on γ-IFN stimulated RENCA cells (5-50 units/ml).
The target of experiment [9] is QL9-loaded H-2 L^d (mouse) (UniProt P01897). The experiment is described as follows: flow cytometry on L^d cells loaded with graded peptide concentrations.
For experiment [10], the target named is p2Ca-loaded H-2 L^d (mouse) (UniProt P01897). Described as above.
The target in experiment [11] is QL9-loaded H-2 L^d (mouse) (UniProt P01897). Briefly: flow cytometry on peptide-loaded RMA-S L^d cells; mAb 30.5.7 then PE-labelled goat anti-mouse IgG.
For experiment [12], the target named is SL9-loaded H-2 L^d (mouse) (UniProt P01897). The description is as above.
Experiment [13] deals with p2Ca-loaded H-2 L^d (mouse) (UniProt P01897). The description is as above.
For experiment [14], the target named is tum (mouse). Described as above.
The target of experiment [15] is unloaded H-2 L^d on RMA-S L^d cells (mouse) (UniProt P01897). Briefly: flow cytometry on RMA-S L^d cells, no peptide, bar '37 degrees'; mAb 30.5.7 then PE-labelled goat anti-mouse IgG.
Sequence of unloaded H-2 L^d on RMA-S L^d cells (mouse) (P01897 25-309): as the sequence (P01897 25-309) above
Experiment [16] shares this target. Briefly: flow cytometry on RMA-S L^d cells, no peptide, bar '22 degrees' (the legend says 27°C); mAb 30.5.7 then PE-labelled goat anti-mouse IgG.
The target of experiment [17] is SIY-loaded H-2 K^bm3 (mouse). Briefly: flow cytometry on peptide-loaded T2 K^bm3 cells.
Experiment [18] deals with QL9-loaded H-2 L^d (mouse) (UniProt P01897). The experiment is described as follows: flow cytometry, serial dilutions on QL9-loaded RMA-S L^d cells, detection with H57-FITC.
In experiment [19] the target is p2Ca-loaded H-2 L^d (mouse) (UniProt P01897). Briefly: flow cytometry, serial dilutions on p2Ca-loaded RMA-S L^d cells, detection with H57-FITC.
Experiment [20] has the same target. Briefly: competition with constant FITC-30.5.7 Fab on peptide-loaded RMA-S L^d cells, flow cytometry.
Experiment [21] has as its target QL9-loaded H-2 L^d (mouse) (UniProt P01897). Briefly: flow cytometry on RMA-S L^d cells loaded with 100 µM peptide; two-fold dilutions of soluble monovalent 2C TCR, detected with H57-FITC.

Usually Kd stands for the concentration at which binding is half-saturated. Broadly, the EC50 (read off the curve) is the concentration that produces a half-maximal response.

Sequence of QL9-loaded H-2 L^d (mouse) (P01897 25-362): as the sequence (P01897 25-362) above
Sequence of pMCMV-loaded H-2 L^d (mouse) (P01897 25-309): as the sequence (P01897 25-309) above
Sequence of soluble divalent 2C TCR/Ig (A2KF29 whole entry, looked up, tested part not stated): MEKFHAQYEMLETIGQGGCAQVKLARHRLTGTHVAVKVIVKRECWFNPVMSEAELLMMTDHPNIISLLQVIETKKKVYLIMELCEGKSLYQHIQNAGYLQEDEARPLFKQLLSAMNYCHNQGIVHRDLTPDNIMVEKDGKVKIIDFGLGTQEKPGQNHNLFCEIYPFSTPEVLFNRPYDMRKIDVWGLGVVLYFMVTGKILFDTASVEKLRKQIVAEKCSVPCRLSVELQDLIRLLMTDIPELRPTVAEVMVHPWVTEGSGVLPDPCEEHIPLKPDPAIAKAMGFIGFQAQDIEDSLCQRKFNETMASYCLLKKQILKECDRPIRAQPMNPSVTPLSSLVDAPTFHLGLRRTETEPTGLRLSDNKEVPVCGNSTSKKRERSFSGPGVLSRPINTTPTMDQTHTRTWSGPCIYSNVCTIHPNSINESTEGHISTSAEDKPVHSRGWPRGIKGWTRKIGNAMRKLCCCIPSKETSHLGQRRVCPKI

For the substance FITC-labeled 30.5.7 Fab, the Kd is 4.8 nM in [1], 12.2 nM in experiment [2], 4.8 to 6.4 nM in experiment [3] and 5.8 nM in experiment [4].

Regarding mAb 30.5.7 (antibody), the Mean Channel Fluorescence in [5] stood at 677; in experiment [6], 648; in experiment [11] it was 688; in [12], 556; in experiment [13], 693; in [14], 578. Also, the Mean Channel Fluorescence was 60 in experiment [15] and 347 in experiment [16]. Besides, the MCF in [7] is 500; in experiment [8], 2670 to 3040; in [9] it was 3000; in experiment [10] it was 3000.

The substance “soluble divalent 2C TCR/Ig (from UniProt A2KF29)” had an MCF in experiment [17] of 36.

In turn, soluble monovalent 2C TCR displayed a concentration required to detect binding in experiment [18] of more than 100 nM. For the same substance, the concentration required to detect binding in experiment [19] was more than 3000 nM. For the same substance, in [20], the Kapp was more than 2000 nM and the Kd is more than 2000 nM. The substance also registered an EC50 (read off the curve) in experiment [21] of 300 nM.
